The text below walks through data of patent publication EP0526502B1, “PHENOLIC AMINE DEPIGMENTING AND ANTIMELANOMA AGENTS” (The Governors of the University of Alberta, priority 1990, dated 1991).

Substrate in the data set: NCCSc1ccc(O)cc1
In words: Enzyme kinetics with monoamineoxidase (substrate disappearance by HPLC, Lineweaver-Burk). It counts as biochemical. The settings on record: other: plasma monoamine oxidase, 0.005 unit/ml, pH 7.4, 37°C. As to the method: Mushroom tyrosinase (400 units/mg) and plasma MAO (1000 units/gm) were obtained from Sigma Chemical Co. (St. Louis, MO, USA). A reaction mixture consisted of a substrate of 7 to 8 different concentrations (40 to 500 »M for mushroom tyrosinase and 20 to 200 »M for MAO) and of either mushroom tyrosinase (2.5 »g) or MAO (10 »g) in 1.0 mL of 0.05 M sodium phosphate buffer, pH 6.8 and 7.4 respectively. The reactions were carried out at 37°C in a shaking water bath, and stopped by taking 100 »L of the reaction mixture and adding it to 900 »L of 0.4 M HCLO₄. The disappearance of substrate was followed using HPLC (high pressure liquid chromatography) Km and Vmax values were calculated from the Lineweaver-Burk plots.

B1: plasma MAO (Bos taurus) (protein)
chain: REEGGVGSEEGVGKQCHPSLPPRCPSRSPSDQPWTHPDQSQLFADLSREELTTVMSFLTQQLGPDLVDAAQARPSDNCVFSVELQLPPKAAALAHLDRGSPPPAREALAIVFFGGQPQPNVTELVVGPLPQPSYMRDVTVERHGGPLPYYRRPVLLREYLDIDQMIFNRELPQAAGVLHHCCSYKQGGQKLLTMNSAPRGVQSGDRSTWFGIYYNITKGGPYLHPVGLELLVDHKALDPADWTVQKVFFQGRYYENLAQLEEQFEAGQVNVVVIPDDGTGGFWSLKSQVPPGPTPPLQFHPQGPRFSVQGNRVASSLWTFSFGLGAFSGPRVFDVRFQGERLAYEISLQEAGAVYGGNTPAAMLTRYMDSGFGMGYFATPLIRGVDCPYLATYMDWHFVVESQTPKTLHDAFCVFEQNKGLPLRRHHSDFLSHYFGGVAQTVLVFRSVSTMLNYDYVWDMVFYPNGAIEVKLHATGYISSAFLFGAARRYGNQVGEHTLGPVHTHSAHYKVDLDVGGLENWVWAEDMAFVPTAIPWSPEHQIQRLQVTRKQLETEEQAAFPLGGASPRYLYLASKQSNKWGHPRGYRIQTVSFAGGPMPQNSPMERAFSWGRYQLAITQRKETEPSSSSVFNQNDPWTPTVDFSDFINNETIAGKDLVAWVTAGFLHIPHAEDIPNTVTVGNGVGFFLRPYNFFDQEPSMDSADSIYFREGQDAGSCEINPLACLPQAATCAPDLPVFSHGGYPEY
notes: purchased Sigma Chemical Co. (St. Louis, MO, USA)
As a reminder, the Km is the substrate concentration at which the rate is half of its maximum. B1: the Km turned out to be 52.6 µM.
